# Measured values as given in paper PMC10287930, “RecF protein targeting to post-replication (daughter strand) gaps II: RecF interaction with replisomes” (Nucleic Acids Research, 2023).
# B1: RecF (Gal4 fusion for yeast two-hybrid) (natural protein, E. coli, UniProt P0A7H0 1-357, looked up)
# chain: MSLTRLLIRDFRNIETADLALSPGFNFLVGANGSGKTSVLEAIYTLGHGRAFRSLQIGRVIRHEQEAFVLHGRLQGEERETAIGLTKDKQGDSKVRIDGTDGHKVAELAHLMPMQLITPEGFTLLNGGPKYRRAFLDWGCFHNEPGFFTAWSNLKRLLKQRNAALRQVTRYEQLRPWDKELIPLAEQISTWRAEYSAGIAADMADTCKQFLPEFSLTFSFQRGWEKETEYAEVLERNFERDRQLTYTAHGPHKADLRIRADGAPVEDTLSRGQLKLLMCALRLAQGEFLTRESGRRCLYLIDDFASELDDERRGLLASRLKATQSQVFVSAISAEHVIDMSDENSKMFTVEKGKITD
# notes: RecF, E. coli; open reading frame (start to stop codons) of recF cloned in frame into pGAD-C3 and pGBD-C3; Stood as AD fusion and as BD fusion in turn; one molecule for both; source: yeast two-hybrid fusion (yeast CFy7; pEAW1241 pGAD-RecF, pEAW1242 pGBD-RecF)
# B2: RecR (Gal4 fusion for yeast two-hybrid) (natural protein, E. coli, UniProt P0A7H6 1-201, looked up)
# chain: MQTSPLLTQLMEALRCLPGVGPKSAQRMAFTLLQRDRSGGMRLAQALTRAMSEIGHCADCRTFTEQEVCNICSNPRRQENGQICVVESPADIYAIEQTGQFSGRYFVLMGHLSPLDGIGPDDIGLDRLEQRLAEEKITEVILATNPTVEGEATANYIAELCAQYDVEASRIAHGVPVGGELEMVDGTTLSHSLAGRHKIRF
# notes: RecR, E. coli; open reading frame (start to stop codons) of recR; Stood as AD fusion and as BD fusion in turn; also called pGAD-RecR; pGBD-RecR; source: yeast two-hybrid fusion (yeast CFy7; pEAW1247 pGAD-RecR, pEAW1248 pGBD-RecR)
# Experiments:
# Assay in all cases: two-hybrid; yeast CFy7; RecF fused to Gal4 AD (pGAD-C3) or BD (pGBD-C3) and the partner to the other domain; β-galactosidase activity of freeze/thaw-broken cells in Z buffer; 4 or 5 biological replicates; negative controls (empty C3) 0.21 (AD_RecF) and 0.27 units (BD_RecF)
# [1] = target: T1, DnaN β-clamp (Gal4 fusion for yeast two-hybrid) (E. coli, UniProt P0A988 1-366); conditions: partners not purified
# T1 construct: DnaN (β-clamp of DNA polymerase III), E. coli; open reading frame (start to stop codons) of dnaN; also called pGBD-DnaN; source: yeast two-hybrid fusion (yeast CFy7; pEAW1101 pGAD-DnaN, pEAW1104 pGBD-DnaN)
# T1 sequence (P0A988 whole entry, the tested form may be a part): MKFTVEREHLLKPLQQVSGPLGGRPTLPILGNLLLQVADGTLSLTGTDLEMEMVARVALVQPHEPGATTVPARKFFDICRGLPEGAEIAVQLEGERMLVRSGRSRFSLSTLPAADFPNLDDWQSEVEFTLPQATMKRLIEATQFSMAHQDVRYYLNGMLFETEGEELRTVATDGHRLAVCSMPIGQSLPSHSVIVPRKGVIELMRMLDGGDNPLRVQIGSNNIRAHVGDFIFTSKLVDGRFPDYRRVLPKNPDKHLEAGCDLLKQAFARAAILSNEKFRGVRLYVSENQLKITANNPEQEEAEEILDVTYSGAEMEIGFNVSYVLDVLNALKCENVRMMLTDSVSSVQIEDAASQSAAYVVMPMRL
# [2] = target: the molecule itself
# [3] = target: B2; conditions: partners not purified
# [4] = target: B1; conditions: partners not purified
Binder,β-galactosidase activity [4] [units],other results
B1,–,β-galactosidase activity [1]: 1.05 units; β-galactosidase activity [2]: 0.655 units; β-galactosidase activity [3]: 1.14 units
B2,1.63,–
"RecO (Gal4 fusion for yeast two-hybrid) (natural protein, E. coli, UniProt P0A7H3 1-242, looked up, RecO, E. coli; open reading frame (start to stop codons) of recO; also called pGAD-RecO; pGBD-RecO; source: yeast two-hybrid fusion (yeast CFy7; pEAW1258 pGAD-RecO, pEAW1259 pGBD-RecO)) MEGWQRAFVLHSRPWSETSLMLDVFTEESGRVRLVAKGARSKRSTLKGALQPFTPLLLRFGGRGEVKTLRSAEAVSLALPLSGITLYSGLYINELLSRVLEYETRFSELFFDYLHCIQSLAGVTGTPEPALRRFELALLGHLGYGVNFTHCAGSGEPVDDTMTYRYREEKGFIASVVIDNKTFTGRQLKALNAREFPDADTLRAAKRFTRMALKPYLGGKPLKSRELFRQFMPKRTVKTHYE",~0.5,–
"RadD (Gal4 fusion for yeast two-hybrid) (natural protein, E. coli, UniProt P33919 1-586, looked up, RadD (YejH), E. coli; also called YejH; pGAD-YejH; source: yeast two-hybrid fusion (yeast CFy7)) MIFTLRPYQQEAVDATLNHFRRHKTPAVIVLPTGAGKSLVIAELARLARGRVLVLAHVKELVAQNHAKYQALGLEADIFAAGLKRKESHGKVVFGSVQSVARNLDAFQGEFSLLIVDECHRIGDDEESQYQQILTHLTKVNPHLRLLGLTATPFRLGKGWIYQFHYHGMVRGDEKALFRDCIYELPLRYMIKHGYLTPPERLDMPVVQYDFSRLQAQSNGLFSEADLNRELKKQQRITPHIISQIMEFAATRKGVMIFAATVEHAKEIVGLLPAEDAALITGDTPGAERDVLIENFKAQRFRYLVNVAVLTTGFDAPHVDLIAILRPTESVSLYQQIVGRGLRLAPGKTDCLILDYAGNPHDLYAPEVGTPKGKSDNVPVQVFCPACGFANTFWGKTTADGTLIEHFGRRCQGWFEDDDGHREQCDFRFRFKNCPQCNAENDIAARRCRECDTVLVDPDDMLKAALRLKDALVLRCSGMSLQHGHDEKGEWLKITYYDEDGADVSERFRLQTPAQRTAFEQLFIRPHTRTPGIPLRWITAADILAQQALLRHPDFVVARMKGQYWQVREKVFDYEGRFRLAHELRG",~0.5,–
"TopB (Gal4 fusion for yeast two-hybrid) (natural protein, E. coli, UniProt P14294 1-653, looked up, TopB (DNA topoisomerase III), E. coli; open reading frame (start to stop codons) of topB; also called pGAD-TopB; pGBD-TopB; source: yeast two-hybrid fusion (yeast CFy7; pEAW1251 pGAD-TopB, pEAW1252 pGBD-TopB)) MRLFIAEKPSLARAIADVLPKPHRKGDGFIECGNGQVVTWCIGHLLEQAQPDAYDSRYARWNLADLPIVPEKWQLQPRPSVTKQLNVIKRFLHEASEIVHAGDPDREGQLLVDEVLDYLQLAPEKRQQVQRCLINDLNPQAVERAIDRLRSNSEFVPLCVSALARARADWLYGINMTRAYTILGRNAGYQGVLSVGRVQTPVLGLVVRRDEEIENFVAKDFFEVKAHIVTPADERFTAIWQPSEACEPYQDEEGRLLHRPLAEHVVNRISGQPAIVTSYNDKRESESAPLPFSLSALQIEAAKRFGLSAQNVLDICQKLYETHKLITYPRSDCRYLPEEHFAGRHAVMNAISVHAPDLLPQPVVDPDIRNRCWDDKKVDAHHAIIPTARSSAINLTENEAKVYNLIARQYLMQFCPDAVFRKCVIELDIAKGKFVAKARFLAEAGWRTLLGSKERDEENDGTPLPVVAKGDELLCEKGEVVERQTQPPRHFTDATLLSAMTGIARFVQDKDLKKILRATDGLGTEATRAGIIELLFKRGFLTKKGRYIHSTDAGKALFHSLPEMATRPDMTAHWESVLTQISEKQCRYQDFMQPLVGTLYQLIDQAKRTPVRQFRGIVAPGSGGSADKKKAAPRKRSAKKSPPADEVGSGAIA",~0.5,–
"RecQ (Gal4 fusion for yeast two-hybrid) (natural protein, RecQ helicase, E. coli; open reading frame (start to stop codons) of recQ; also called pGAD-RecQ; pGBD-RecQ; source: yeast two-hybrid fusion (yeast CFy7; pEAW1100 pGAD-RecQ, pEAW1105 pGBD-RecQ)) not shown",~0.5,–
